Results on 2 substances are retold here after patent US5968782.

The test has as its target mouse fibrinogen (mouse) (UniProt E9PV24).

As for “recombinant mMCP-7-FLAG (EK-activated mature mouse mast cell protease 7 with C-terminal FLAG peptide) (enzyme)”, the fibrinogenolysis assay: time required for thrombin to clot mouse plasma is > 40 s.

thrombin (enzyme) had a time required for thrombin to clot mouse plasma (control) of 15 s.
